First the molecules themselves.
B1: ketosteroid isomerase (KSI) Y57F/D40N (enzyme, Pseudomonas putida)
chain: LPTAQEVQGLMARYIELVDVGDIEAIVQMYADDATVENPFGQPPIHGREQIAAFFRQGLGGGKVRACLTGPVRASHNGCGAMPFRVEMVWNGQPCALDVIDVMRFDEHGRIQTMQAYWSEVNLSVREPQ
B2: ketosteroid isomerase (KSI) Y32F/Y57F (enzyme, Pseudomonas putida)
chain: MNLPTAQEVQGLMARYIELVDVGDIEAIVQMFADDATVEDPFGQPPIHGREQIAAFFRQGLGGGKVRACLTGPVRASHNGCGAMPFRVEMVWNGQPCALDVIDVMRFDEHGRIQTMQAYWSEVNLSVREPQ
B3: ketosteroid isomerase (KSI) Y57F (enzyme, Pseudomonas putida)
chain: MNLPTAQEVQGLMARYIELVDVGDIEAIVQMYADDATVEDPFGQPPIHGREQIAAFFRQGLGGGKVRACLTGPVRASHNGCGAMPFRVEMVWNGQPCALDVIDVMRFDEHGRIQTMQAYWSEVNLSVREPQ

We go through three proteins from publication doi:10.1101/2021.09.29.461692 (bioRxiv, 2021).

The series concerns the molecule itself. The experiment in a line: crystal structure.
As to B1, the “stoichiometry N” value was found to be 2.
B2: the “stoichiometry N” value was 2.
As for B3, the “stoichiometry N” value is 2.

By stoichiometry N is commonly meant the number of molecules, sites or subunits per partner or assembly.
